According to patent publication US9575076:

Assays:
[1] = target: Follicle Stimulating Hormone (FSH) (UniProt P01215); test: i-STAT sandwich cartridge, 0.4 mIU/L TSH plus FSH, signal gain over TSH alone; capture ME130, detection 5409
[2] = target: Thyroid Stimulating Hormone (TSH) (UniProt P01215); test: FRET competition on Alexa488-labelled antigen; competitor BHQ-labelled ME130
[3] = target: Thyroid Stimulating Hormone (TSH) (UniProt P01215); test: i-STAT sandwich cartridge with TSH; capture beads ME130, detection conjugate 5409
[4] = target: Chorionic Gonadotropin (CG) (UniProt P01215); test: i-STAT sandwich cartridge, 0.4 mIU/L TSH plus CG, signal gain over TSH alone; capture ME130, detection 5409
[5] = target: Thyroid Stimulating Hormone (TSH) (UniProt P01215); test: FRET competition on Alexa488-labelled antigen; competitor BHQ-labelled 414B
[6] = target: Thyroid Stimulating Hormone (TSH) (UniProt P01215); test: FRET competition on Alexa488-labelled antigen; competitor BHQ-labelled T25C
[7] = target: Thyroid Stimulating Hormone (TSH) (UniProt P01215); test: FRET competition on Alexa488-labelled antigen; competitor BHQ-labelled TSH Ab 544
[8] = target: Chorionic Gonadotropin (CG) (UniProt P01215); test: FRET quenching titration, BHQ-10 antibody and Alexa Fluor 488 antigen
[9] = target: Thyroid Stimulating Hormone (TSH) (UniProt P01215); test: as above
[10] = target: Follicle Stimulating Hormone (FSH) (UniProt P01215); test: as above
[11] = target: Luteinizing Hormone (LH) (UniProt P01215); test: as above
[12] = target: Thyroid Stimulating Hormone (TSH) (UniProt P01215); test: i-STAT sandwich cartridge with TSH; capture beads ME130, detection conjugate M4
[13] = target: Thyroid Stimulating Hormone (TSH) (UniProt P01215); test: i-STAT sandwich cartridge with TSH; capture beads ME130, detection conjugate T25C
[14] = target: Thyroid Stimulating Hormone (TSH) (UniProt P01215); test: FRET competition on Alexa488-labelled antigen; competitor BHQ-labelled M4
[15] = target: Thyroid Stimulating Hormone (TSH) (UniProt P01215); test: i-STAT sandwich cartridge with TSH; capture beads ME130, detection conjugate TSH Ab 544
[16] = target: Luteinizing Hormone (LH) (UniProt P01215); test: i-STAT sandwich cartridge, 0.4 mIU/L TSH plus LH, signal gain over TSH alone; capture ME130, detection 5409
[17] = target: Thyroid Stimulating Hormone (TSH) (UniProt P01215); test: FRET competition on Alexa488-labelled antigen; competitor BHQ-labelled 5409
[18] = target: Thyroid Stimulating Hormone (TSH) (UniProt P01215); test: i-STAT sandwich cartridge with TSH; capture beads M4, detection conjugate 5409
[19] = target: Thyroid Stimulating Hormone (TSH) (UniProt P01215); test: i-STAT sandwich cartridge with TSH; capture beads M4, detection conjugate ME130
[20] = target: Thyroid Stimulating Hormone (TSH) (UniProt P01215); test: i-STAT sandwich cartridge with TSH; capture beads M4, detection conjugate TSH Ab 544
[21] = target: Thyroid Stimulating Hormone (TSH) (UniProt P01215); test: i-STAT sandwich cartridge with TSH; capture beads M4, detection conjugate T25C
[22] = target: Follicle Stimulating Hormone (FSH) (UniProt P01215); test: i-STAT sandwich cartridge, 0.4 mIU/L TSH plus FSH, signal gain over TSH alone; capture 414B, detection 5409
[23] = target: Follicle Stimulating Hormone (FSH) (UniProt P01215); test: i-STAT sandwich cartridge, 0.4 mIU/L TSH plus FSH, signal gain over TSH alone; capture 414B, detection TSH Ab 544
[24] = target: Chorionic Gonadotropin (CG) (UniProt P01215); test: i-STAT sandwich cartridge, 0.4 mIU/L TSH plus CG, signal gain over TSH alone; capture 414B, detection 5409
[25] = target: Thyroid Stimulating Hormone (TSH) (UniProt P01215); test: i-STAT sandwich cartridge with TSH; capture beads 414B, detection conjugate M4
[26] = target: Thyroid Stimulating Hormone (TSH) (UniProt P01215); test: i-STAT sandwich cartridge with TSH; capture beads 414B, detection conjugate TSH Ab 544
[27] = target: Luteinizing Hormone (LH) (UniProt P01215); test: i-STAT sandwich cartridge, 0.4 mIU/L TSH plus LH, signal gain over TSH alone; capture 414B, detection 5409
[28] = target: Thyroid Stimulating Hormone (TSH) (UniProt P01215); test: i-STAT sandwich cartridge with TSH; capture beads 414B, detection conjugate 5409
[29] = target: Chorionic Gonadotropin (CG) (UniProt P01215); test: i-STAT sandwich cartridge, 0.4 mIU/L TSH plus CG, signal gain over TSH alone; capture 414B, detection TSH Ab 544
[30] = target: Luteinizing Hormone (LH) (UniProt P01215); test: i-STAT sandwich cartridge, 0.4 mIU/L TSH plus LH, signal gain over TSH alone; capture 414B, detection TSH Ab 544
[31] = target: Chorionic Gonadotropin (CG) (UniProt P01215); test: i-STAT sandwich cartridge, 0.4 mIU/L TSH plus CG, signal gain over TSH alone; capture 5409, detection ME130
[32] = target: Thyroid Stimulating Hormone (TSH) (UniProt P01215); test: i-STAT sandwich cartridge with TSH; capture beads 5409, detection conjugate ME130
[33] = target: Thyroid Stimulating Hormone (TSH) (UniProt P01215); test: i-STAT sandwich cartridge with TSH; capture beads 5409, detection conjugate T25C
[34] = target: Follicle Stimulating Hormone (FSH) (UniProt P01215); test: i-STAT sandwich cartridge, 0.4 mIU/L TSH plus FSH, signal gain over TSH alone; capture 5409, detection ME130
[35] = target: Follicle Stimulating Hormone (FSH) (UniProt P01215); test: i-STAT sandwich cartridge, 0.4 mIU/L TSH plus FSH, signal gain over TSH alone; capture 5409, detection T25C
[36] = target: Luteinizing Hormone (LH) (UniProt P01215); test: i-STAT sandwich cartridge, 0.4 mIU/L TSH plus LH, signal gain over TSH alone; capture 5409, detection T25C
[37] = target: Thyroid Stimulating Hormone (TSH) (UniProt P01215); test: i-STAT sandwich cartridge with TSH; capture beads 5409, detection conjugate M4
[38] = target: Chorionic Gonadotropin (CG) (UniProt P01215); test: i-STAT sandwich cartridge, 0.4 mIU/L TSH plus CG, signal gain over TSH alone; capture 5409, detection T25C
[39] = target: Thyroid Stimulating Hormone (TSH) (UniProt P01215); test: i-STAT sandwich cartridge with TSH; capture beads 5409, detection conjugate TSH Ab 544
[40] = target: Luteinizing Hormone (LH) (UniProt P01215); test: i-STAT sandwich cartridge, 0.4 mIU/L TSH plus LH, signal gain over TSH alone; capture 5409, detection ME130
[41] = target: Thyroid Stimulating Hormone (TSH) (UniProt P01215); test: i-STAT sandwich cartridge with TSH; capture beads T25C, detection conjugate M4
[42] = target: Thyroid Stimulating Hormone (TSH) (UniProt P01215); test: i-STAT sandwich cartridge with TSH; capture beads T25C, detection conjugate 5409
[43] = target: Chorionic Gonadotropin (CG) (UniProt P01215); test: i-STAT sandwich cartridge, 0.4 mIU/L TSH plus CG, signal gain over TSH alone; capture T25C, detection 5409
[44] = target: Follicle Stimulating Hormone (FSH) (UniProt P01215); test: i-STAT sandwich cartridge, 0.4 mIU/L TSH plus FSH, signal gain over TSH alone; capture T25C, detection 5409
[45] = target: Luteinizing Hormone (LH) (UniProt P01215); test: i-STAT sandwich cartridge, 0.4 mIU/L TSH plus LH, signal gain over TSH alone; capture T25C, detection 5409
[46] = target: Thyroid Stimulating Hormone (TSH) (UniProt P01215); test: i-STAT sandwich cartridge with TSH; capture beads T25C, detection conjugate ME130
[47] = target: Thyroid Stimulating Hormone (TSH) (UniProt P01215); test: i-STAT sandwich cartridge with TSH; capture beads T25C, detection conjugate 414B
[48] = target: Thyroid Stimulating Hormone (TSH) (UniProt P01215); test: i-STAT sandwich cartridge with TSH; capture beads T25C, detection conjugate TSH Ab 544

Row | relative fluorescence [2] [normalized] | relative fluorescence [5] [normalized] | relative fluorescence [6] [normalized] | relative fluorescence [7] [normalized] | Kd [8] [nM] | Kd [9] [nM] | Kd [10] [nM] | Kd [11] [nM] | relative fluorescence [14] [normalized] | relative fluorescence [17] [normalized] | Substance | further results
1 | 0.86 | 1 | 0.76 | 0.83 | 0.05 | 0.04 | 0.1 | 0.05 | 0.75 | 0.81 | Seradyn anti-alpha-LH monoclonal antibody Cat#MIT0414B | FSH CR (%) [22]: 260%; FSH CR (%) [23]: 219%; CG CR (%) [24]: 84.6%; electrochemical current [25]: 41.3 nA; electrochemical current [26]: 10.2 nA; LH CR (%) [27]: 348%; electrochemical current [28]: 40.3 nA; CG CR (%) [29]: 39.2%; LH CR (%) [30]: 467%
2 | 0.78 | 0.88 | 0.78 | 0.93 | 500 | 0.1 | 1000 | 1000 | 0.9 | 1 | TSH capture mouse monoclonal antibody Biospacific Cat#5409 SPTNE-5 | CG CR (%) [31]: 0.78%; electrochemical current [32]: 53.6 nA; electrochemical current [33]: 34.6 nA; FSH CR (%) [34]: 2.43%; FSH CR (%) [35]: 0.65%; LH CR (%) [36]: 3.76%; electrochemical current [37]: 15.2 nA; CG CR (%) [38]: 0.96%; electrochemical current [39]: 1.41 nA; LH CR (%) [40]: 10.1%
3 | 0.97 | 0.97 | 1 | 0.97 | 40 | 0.08 | 300 | 35 | 0.92 | 0.95 | signaling mouse monoclonal antibody Fitzgerald Cat#10-T25C | electrochemical current [41]: 40.9 nA; electrochemical current [42]: 49.7 nA; CG CR (%) [43]: 13.7%; FSH CR (%) [44]: 6.25%; LH CR (%) [45]: 9.89%; electrochemical current [46]: 0.68 nA; electrochemical current [47]: 0.82 nA; electrochemical current [48]: 0.83 nA

Continued, substance first:

Row | Substance | relative fluorescence [2] [normalized] | relative fluorescence [5] [normalized] | relative fluorescence [6] [normalized] | relative fluorescence [7] [normalized] | Kd [8] [nM] | Kd [9] [nM] | Kd [10] [nM] | Kd [11] [nM] | relative fluorescence [14] [normalized] | relative fluorescence [17] [normalized] | further results
4 | AbCAM ME-130 mouse monoclonal antibody | 1 | 0.99 | 0.88 | 0.82 | 45 | 0.04 | 70 | 54 | 0.77 | 0.82 | FSH CR (%) [1]: 3.9%; electrochemical current [3]: 54.7 nA; CG CR (%) [4]: 11.8%; electrochemical current [12]: 50.5 nA; electrochemical current [13]: -0.1 nA; electrochemical current [15]: 10.8 nA; LH CR (%) [16]: 11.1%
5 | Fitzgerald 10C-CR2151M4 mouse monoclonal antibody | 0.76 | 0.9 | 0.74 | 0.98 | 554 | 0.18 | 210 | 300 | 1 | 0.94 | electrochemical current [18]: 20.7 nA; electrochemical current [19]: 39.9 nA; electrochemical current [20]: 0 nA; electrochemical current [21]: 22.5 nA
